The record followed here is publication PMC7447434, “Atomic structure of a mitochondrial complex I intermediate from vascular plants” (eLife, 2020).

First the molecules themselves.
B1: CA1 (natural protein, Vigna radiata, UniProt A0A1S3VT00 1-270, looked up)
chain: MGTLGRAFYAVGFWIRETGQAIDRLGSRLQGNYLFQEQLSRHRPLMNLFDKYPSVHKDAFVAPSASLLGDVHVGPASSIWYGCVLRGDVNGIVIGSGTNIQDNSLVHVAKSNLTGKVLPTIIGDNVTVGHSAVLQGCTVEDEAFIGMGATLLDGVYVEKHAMVAAGALVRQNTRIPYGEVWGGNPAKFLRKLTEDEMAFFSQSALNYSNLAQAHAAENAKELEETEFVKVLHKKFAPRGEEYDSILDGGQETPAKLNLQDNVLLDKAPKA
notes: CA1, gamma-carbonic-anhydrase domain subunit of Vigna radiata mitochondrial complex I; 270 residues; residues 3-222 modelled, 223-233 as poly-Ala; also called carbonic-anhydrase-1 subunit; Gamma-CA 1 (A. thaliana name)

Experiment in all cases: cryo-EM structure; CI* (~800 kDa assembly intermediate) from V. radiata mitochondrial membranes, digitonin-extracted, amphipol A8-35-stabilised, sucrose gradient; 6 mg/ml in 20 mM HEPES, 150 mM NaCl, 1 mM EDTA, 0.1% digitonin, pH 7.8; nominal resolution 3.9 Å; interfaces of the γCA domain listed from the model with PDBePISA
What all share (conditions): both partners purified

Assay [1] concerns the target T1, NU2M (Vigna radiata, UniProt E9KZK9 1-488, S19F | S103F | S104F | P119L | P121S | R123C | H132Y | P143L | S166LL | S221F | …).
T1 construct: NU2M, mitochondrially encoded core PP-module subunit of Vigna radiata complex I; 488 residues; residues 1-487 modelled; 14 TMH; the substitutions are RNA editing sites against the entry, made in the model where the density fitted the edited residue; RNA edits are natural; 'S166LL' is printed so and was read as S166L; also called Nad2 (A. thaliana name)
T1 sequence (looked up): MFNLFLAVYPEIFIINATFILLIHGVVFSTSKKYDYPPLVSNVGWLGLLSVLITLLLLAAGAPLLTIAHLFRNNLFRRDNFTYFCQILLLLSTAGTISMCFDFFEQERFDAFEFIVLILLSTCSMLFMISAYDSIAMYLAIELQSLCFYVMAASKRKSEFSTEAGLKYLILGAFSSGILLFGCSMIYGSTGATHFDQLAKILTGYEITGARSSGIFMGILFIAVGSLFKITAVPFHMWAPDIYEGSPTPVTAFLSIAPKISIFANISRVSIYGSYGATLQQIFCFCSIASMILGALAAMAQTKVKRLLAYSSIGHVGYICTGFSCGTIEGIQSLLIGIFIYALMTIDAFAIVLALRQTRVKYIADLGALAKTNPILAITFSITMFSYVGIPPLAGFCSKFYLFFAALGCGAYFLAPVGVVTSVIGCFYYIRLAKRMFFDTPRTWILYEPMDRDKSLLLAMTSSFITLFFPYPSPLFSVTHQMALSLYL

For the assay “CA1”, the target named is B1.
The target of assay [2] is T1, NU2M. This is another data set of the same source.

Take B1: the binding result with NU2M [1] is given as “binds”.

B2: NDUX1 (natural protein, Vigna radiata, UniProt A0A1S3VI15 1-101, looked up)
chain: MNTDITASTKPEYPVVDRNPPFTKVVGNFSTLDYLRFVTITGVSVTVGYLSGIKPGIRGPSMVTGGLIGVMGGFMYAYQNSAGRLMGFFPNDDEVARHNKK
notes: NDUX1, PP-module accessory subunit of Vigna radiata mitochondrial complex I, named here after Y. lipolytica NUXM; 101 residues; residues 1-100 modelled; 2 TMH; also called homologue of Y. lipolytica NUXM; 20.9 kDa (A. thaliana name)
On to B2, for which the binding result with CA1 and in the assay with NU2M [2] was “binds” each time.

B3: NDUC2 (natural protein, Vigna radiata, UniProt A0A1S3UPL8 1-81, looked up)
chain: MVLSATTIGALLGLGTQMYSNALRKLPYMRHPWEHVVGMGLGAVFVNQLLKWEAQVEQDLDKMLEKAKAANERRYIDGDDD
notes: NDUC2, membrane arm accessory subunit of Vigna radiata mitochondrial complex I; 81 residues; residues 5-68 modelled; 2 TMH; also called B14.5b (A. thaliana name)
Consider B3, for which the binding result with CA1 and in the assay with NU2M [2] was “binds” throughout.
